Results published in patent publication US7488598B2, “Mutant purine nucleoside phosphorylase proteins and cellular delivery thereof” (priority 2001, dated 2009).
Values joined by “and” are separate entries in the source; they are usually repeats but may differ in a detail not shown here. Equal values may be shown once.

B1: M65I (protein, UniProt P0ABP8 2-239, looked up, variant M65I)
Purine nucleoside …: ATPHINAEMGDFADVVLMPGDPLRAKYIAETFLEDAREVNNVRGMLGFTGTYKGRKISVMGHGIGIPSCSIYTKELITDFGVKKIIRVGSCGAVLPHVKLRDVVIGMGACTDSKVNRIRFKDHDFAAIADFDMVRNAVDAAKALGIDARVGNLFSADLFYSPDGEMFDVMEKYGILGVEMEAAGIYGVAAEFGAKALTICTVSDHIRTHEQTTAAERQTTFNDMIKIALESVLLGDKE
B2: M65Q (protein, UniProt P0ABP8 2-239, looked up, variant M65Q)
Purine nucleoside …: ATPHINAEMGDFADVVLMPGDPLRAKYIAETFLEDAREVNNVRGMLGFTGTYKGRKISVMGHGQGIPSCSIYTKELITDFGVKKIIRVGSCGAVLPHVKLRDVVIGMGACTDSKVNRIRFKDHDFAAIADFDMVRNAVDAAKALGIDARVGNLFSADLFYSPDGEMFDVMEKYGILGVEMEAAGIYGVAAEFGAKALTICTVSDHIRTHEQTTAAERQTTFNDMIKIALESVLLGDKE
B3: E180S (protein, UniProt P0ABP8 2-239, looked up, variant E180S)
Purine nucleoside …: ATPHINAEMGDFADVVLMPGDPLRAKYIAETFLEDAREVNNVRGMLGFTGTYKGRKISVMGHGMGIPSCSIYTKELITDFGVKKIIRVGSCGAVLPHVKLRDVVIGMGACTDSKVNRIRFKDHDFAAIADFDMVRNAVDAAKALGIDARVGNLFSADLFYSPDGEMFDVMEKYGILGVSMEAAGIYGVAAEFGAKALTICTVSDHIRTHEQTTAAERQTTFNDMIKIALESVLLGDKE
B4: E180T (protein, UniProt P0ABP8 2-239, looked up, variant E180T)
Purine nucleoside …: ATPHINAEMGDFADVVLMPGDPLRAKYIAETFLEDAREVNNVRGMLGFTGTYKGRKISVMGHGMGIPSCSIYTKELITDFGVKKIIRVGSCGAVLPHVKLRDVVIGMGACTDSKVNRIRFKDHDFAAIADFDMVRNAVDAAKALGIDARVGNLFSADLFYSPDGEMFDVMEKYGILGVTMEAAGIYGVAAEFGAKALTICTVSDHIRTHEQTTAAERQTTFNDMIKIALESVLLGDKE
B5: M181A (protein, UniProt P0ABP8 2-239, looked up, variant M181A)
Purine nucleoside …: ATPHINAEMGDFADVVLMPGDPLRAKYIAETFLEDAREVNNVRGMLGFTGTYKGRKISVMGHGMGIPSCSIYTKELITDFGVKKIIRVGSCGAVLPHVKLRDVVIGMGACTDSKVNRIRFKDHDFAAIADFDMVRNAVDAAKALGIDARVGNLFSADLFYSPDGEMFDVMEKYGILGVEAEAAGIYGVAAEFGAKALTICTVSDHIRTHEQTTAAERQTTFNDMIKIALESVLLGDKE
B6: M181L (protein, UniProt P0ABP8 2-239, looked up, variant M181L)
Purine nucleoside …: ATPHINAEMGDFADVVLMPGDPLRAKYIAETFLEDAREVNNVRGMLGFTGTYKGRKISVMGHGMGIPSCSIYTKELITDFGVKKIIRVGSCGAVLPHVKLRDVVIGMGACTDSKVNRIRFKDHDFAAIADFDMVRNAVDAAKALGIDARVGNLFSADLFYSPDGEMFDVMEKYGILGVELEAAGIYGVAAEFGAKALTICTVSDHIRTHEQTTAAERQTTFNDMIKIALESVLLGDKE
B7: M181N (protein, UniProt P0ABP8 2-239, looked up, variant M181N)
Purine nucleoside …: ATPHINAEMGDFADVVLMPGDPLRAKYIAETFLEDAREVNNVRGMLGFTGTYKGRKISVMGHGMGIPSCSIYTKELITDFGVKKIIRVGSCGAVLPHVKLRDVVIGMGACTDSKVNRIRFKDHDFAAIADFDMVRNAVDAAKALGIDARVGNLFSADLFYSPDGEMFDVMEKYGILGVENEAAGIYGVAAEFGAKALTICTVSDHIRTHEQTTAAERQTTFNDMIKIALESVLLGDKE
B8: M181V (protein, UniProt P0ABP8 2-239, looked up, variant M181V)
Purine nucleoside …: ATPHINAEMGDFADVVLMPGDPLRAKYIAETFLEDAREVNNVRGMLGFTGTYKGRKISVMGHGMGIPSCSIYTKELITDFGVKKIIRVGSCGAVLPHVKLRDVVIGMGACTDSKVNRIRFKDHDFAAIADFDMVRNAVDAAKALGIDARVGNLFSADLFYSPDGEMFDVMEKYGILGVEVEAAGIYGVAAEFGAKALTICTVSDHIRTHEQTTAAERQTTFNDMIKIALESVLLGDKE
B9: M181E (protein, UniProt P0ABP8 2-239, looked up, variant M181E)
Purine nucleoside …: ATPHINAEMGDFADVVLMPGDPLRAKYIAETFLEDAREVNNVRGMLGFTGTYKGRKISVMGHGMGIPSCSIYTKELITDFGVKKIIRVGSCGAVLPHVKLRDVVIGMGACTDSKVNRIRFKDHDFAAIADFDMVRNAVDAAKALGIDARVGNLFSADLFYSPDGEMFDVMEKYGILGVEEEAAGIYGVAAEFGAKALTICTVSDHIRTHEQTTAAERQTTFNDMIKIALESVLLGDKE
B10: E182A (protein, UniProt P0ABP8 2-239, looked up, variant E182A)
Purine nucleoside …: ATPHINAEMGDFADVVLMPGDPLRAKYIAETFLEDAREVNNVRGMLGFTGTYKGRKISVMGHGMGIPSCSIYTKELITDFGVKKIIRVGSCGAVLPHVKLRDVVIGMGACTDSKVNRIRFKDHDFAAIADFDMVRNAVDAAKALGIDARVGNLFSADLFYSPDGEMFDVMEKYGILGVEMAAAGIYGVAAEFGAKALTICTVSDHIRTHEQTTAAERQTTFNDMIKIALESVLLGDKE
B11: E182Q (protein, UniProt P0ABP8 2-239, looked up, variant E182Q)
Purine nucleoside …: ATPHINAEMGDFADVVLMPGDPLRAKYIAETFLEDAREVNNVRGMLGFTGTYKGRKISVMGHGMGIPSCSIYTKELITDFGVKKIIRVGSCGAVLPHVKLRDVVIGMGACTDSKVNRIRFKDHDFAAIADFDMVRNAVDAAKALGIDARVGNLFSADLFYSPDGEMFDVMEKYGILGVEMQAAGIYGVAAEFGAKALTICTVSDHIRTHEQTTAAERQTTFNDMIKIALESVLLGDKE
B12: E182V (protein, UniProt P0ABP8 2-239, looked up, variant E182V)
Purine nucleoside …: ATPHINAEMGDFADVVLMPGDPLRAKYIAETFLEDAREVNNVRGMLGFTGTYKGRKISVMGHGMGIPSCSIYTKELITDFGVKKIIRVGSCGAVLPHVKLRDVVIGMGACTDSKVNRIRFKDHDFAAIADFDMVRNAVDAAKALGIDARVGNLFSADLFYSPDGEMFDVMEKYGILGVEMVAAGIYGVAAEFGAKALTICTVSDHIRTHEQTTAAERQTTFNDMIKIALESVLLGDKE
B13: D205A (protein, UniProt P0ABP8 2-239, looked up, variant D205A)
Purine nucleoside …: ATPHINAEMGDFADVVLMPGDPLRAKYIAETFLEDAREVNNVRGMLGFTGTYKGRKISVMGHGMGIPSCSIYTKELITDFGVKKIIRVGSCGAVLPHVKLRDVVIGMGACTDSKVNRIRFKDHDFAAIADFDMVRNAVDAAKALGIDARVGNLFSADLFYSPDGEMFDVMEKYGILGVEMEAAGIYGVAAEFGAKALTICTVSAHIRTHEQTTAAERQTTFNDMIKIALESVLLGDKE
B14: D205N (protein, UniProt P0ABP8 2-239, looked up, variant D205N)
Purine nucleoside …: ATPHINAEMGDFADVVLMPGDPLRAKYIAETFLEDAREVNNVRGMLGFTGTYKGRKISVMGHGMGIPSCSIYTKELITDFGVKKIIRVGSCGAVLPHVKLRDVVIGMGACTDSKVNRIRFKDHDFAAIADFDMVRNAVDAAKALGIDARVGNLFSADLFYSPDGEMFDVMEKYGILGVEMEAAGIYGVAAEFGAKALTICTVSNHIRTHEQTTAAERQTTFNDMIKIALESVLLGDKE
B15: H5N (protein, UniProt P0ABP8 2-239, looked up, variant H5N)
Purine nucleoside …: ATPNINAEMGDFADVVLMPGDPLRAKYIAETFLEDAREVNNVRGMLGFTGTYKGRKISVMGHGMGIPSCSIYTKELITDFGVKKIIRVGSCGAVLPHVKLRDVVIGMGACTDSKVNRIRFKDHDFAAIADFDMVRNAVDAAKALGIDARVGNLFSADLFYSPDGEMFDVMEKYGILGVEMEAAGIYGVAAEFGAKALTICTVSDHIRTHEQTTAAERQTTFNDMIKIALESVLLGDKE
B16: M65A (protein, UniProt P0ABP8 2-239, looked up, variant M65A)
Purine nucleoside …: ATPHINAEMGDFADVVLMPGDPLRAKYIAETFLEDAREVNNVRGMLGFTGTYKGRKISVMGHGAGIPSCSIYTKELITDFGVKKIIRVGSCGAVLPHVKLRDVVIGMGACTDSKVNRIRFKDHDFAAIADFDMVRNAVDAAKALGIDARVGNLFSADLFYSPDGEMFDVMEKYGILGVEMEAAGIYGVAAEFGAKALTICTVSDHIRTHEQTTAAERQTTFNDMIKIALESVLLGDKE

Key:
E. coli PNP mutant M65A = E. coli PNP mutant M65A (Escherichia coli, UniProt P0ABP8, M65A); conditions: Example 16 analysis
[1] = E. coli PNP enzyme activity with substrate MeP-dR; conditions: substrate MeP-dR; for Percent of Control Activity, MeP-dR: percent of wild-type activity; for Activity, MeP-dR: Table IV, 0 denotes no measurable activity
[2] = E. coli PNP enzyme activity with substrate F-araA; conditions: percent of wild-type activity
[3] = E. coli PNP enzyme activity with substrate allo-acet; conditions: Table IV, 0 denotes no measurable activity
[4] = E. coli PNP enzyme activity with substrate talo-acet; conditions: Table IV, 0 denotes no measurable activity
[5] = E. coli PNP enzyme activity with substrate 5′-NH2; conditions: Table IV, 0 denotes no measurable activity
[6] = E. coli PNP enzyme activity with substrate α-L-lyxo; conditions: Table IV, 0 denotes no measurable activity

Molecule	Percent of Control Activity, MeP-dR [1] [%]	Percent of Control Activity, F-araA [2] [%]	further results
C#C[C@H](O)[C@H]1O[C@@H](n2cnc3c(C)ncnc32)[C@H](O)[C@@H]1O [9-(6,7-dideoxy-α-L-hept-6-ynofuranosyl)-6-methylpurine]			activity of mutant M65A compared with wild-type enzyme (in words) (E. coli PNP mutant M65A): more activity
B1	0.02	0.15	Activity, allo-acet [3]: 0 nmol/mg/h; Activity, talo-acet [4]: 0 nmol/mg/h
B2	0.6	1.0	Activity, MeP-dR [1]: 6050 nmol/mg/h and 4210 nmol/mg/h; Activity, 5′-NH2 [5]: 26 nmol/mg/h and 42 nmol/mg/h; Activity, allo-acet [3]: 0 nmol/mg/h; Activity, talo-acet [4]: 0 nmol/mg/h
B3	0.5	0.8	
B4	0.06	0.1	
B5	0.04	0.2	
B6	0.6	1.6	
B7	0.1	0.4	
B8	0.02	0.07	
B9	0.04	0.1	
B10	0.5	0.9	
B11	0.6	1.0	
B12	0.3	0.6	
B13	1.0	1.1	
B14	2.2	2.4	
B15	0.08	0.15	Activity, α-L-lyxo [6]: 16 nmol/mg/h and 11 nmol/mg/h; Activity, allo-acet [3]: 0 nmol/mg/h; Activity, talo-acet [4]: 0 nmol/mg/h
B16	1.5	1.6	Activity, MeP-dR [1]: 12,000 nmoles/mg/hour and 9,400 nmoles/mg/hour; Activity, α-L-lyxo [6]: 1,500 nmoles/mg/hour and 1,070 nmoles/mg/hour; Activity, allo-acet [3]: 0 nmol/mg/h
